This series relates to HEK293T. The series can be described thus: plasma membrane surface immunostaining intensity (anti-HA, deep receptor scanning) (arbitrary fluorescence units); higher = higher plasma membrane expression.

± gives the uncertainty stated by the source.

Turning to “MASPALAAALAVAAAAGPNASGAGERGSGGVANASGASWGPPRGQYSAGAVAGLAAVVGFLIVFTVVGNVLVVIAVLTSRALRAPQNLFLVSLASADILVATLVMPFSLANELMAYWYFGQVWCGVYLALDVLFCTSSIVHLCAISLDRYWSVTQAVEYNLKRTPRRVKATIVAVWLISAVISFPPLVSLYRQPDGAAYPQCGLNDETWYILSSCIGSFFAPCLIMGLVYARIYRVAKLRTRTLSEKRAPVGPDGASPTTENGLGAAAGAGENGHCAPPPADVEPDESSAAAERRRRRGALRRGGRRRAGAEGGAGGADGQGAGPGAAESGALTASRSPGPGGRLSRASSRSVEFFLSRRRRARSSVCRRKVAQAREKRFTFVLAVVMGVFVLCWFPFFFSYSLYGICREACQVPGPLFKFFFWIGYCNSSLNPVIYTVFNQDFRRSFKHILFRRRRRGFRQ [ADRA2C]”, the “plasma membrane surface immunostaining intensity” value (GPCR class: A) stood at 1030 ± 270.

For the sequence “MTPNSTGEVPSPIPKGALGLSLALASLIITANLLLALGIAWDRRLRSPPAGCFFLSLLLAGLLTGLALPTLPGLWNQSRRGYWSCLLVYLAPNFSFLSLLANLLLVHGERYMAVLRPLQPPGSIRLALLLTWAGPLLFASLPALGWNHWTPGANCSSQAIFPAPYLYLEVYGLLLPAVGAAAFLSVRVLATAHRQLQDICRLERAVCRDEPSALARALTWRQARAQAGAMLLFGLCWGPYVATLLLSVLAYEQRPPLGPGTLLSLLSLGSASAAAVPVAMGLGDQRYTAPWRAAAQRCLQGLWGRASRDSPGPSIAYHPSSQSSVDLDLN [GPBAR1]”, the “plasma membrane surface immunostaining intensity” value (GPCR class: A) turned out to be 5940 ± 84.

As for “MELAVGNLSEGNASWPEPPAPEPGPLFGIGVENFVTLVVFGLIFALGVLGNSLVITVLARSKPGKPRSTTNLFILNLSIADLAYLLFCIPFQATVYALPTWVLGAFICKFIHYFFTVSMLVSIFTLAAMSVDRYVAIVHSRRSSSLRVSRNALLGVGCIWALSIAMASPVAYHQGLFHPRASNQTFCWEQWPDPRHKKAYVVCTFVFGYLLPLLLICFCYAKVLNHLHKKLKNMSKKSEASKKKTAQTVLVVVVVFGISWLPHHIIHLWAEFGVFPLTPASFLFRITAHCLAYSNSSVNPIIYAFLSENFRKAYKQVFKCHIRKDSHLSDTKESKSRIDTPPSTNCTHV [GALR1]”, the “plasma membrane surface immunostaining intensity” value (GPCR class: A) came to 6490 ± 69.

Consider “MKIANNTVVTEFILLGLTQSQDIQLLVFVLILIFYLIILPGNFLIIFTIRSDPGLTAPLYLFLGNLAFLDASYSFIVAPRMLVDFLSEKKVISYRGCITQLFFLHFLGGGEGLLLVVMAFDRYIAICRPLHCSTVMNPRACYAMMLALWLGGFVHSIIQVVLILRLPFCGPNQLDNFFCDVRQVIKLACTDMFVVELLMVFNSGLMTLLCFLGLLASYAVILCHVRRAASEGKNKAMSTCTTRVIIILLMFGPAIFIYMCPFRALPADKMVSLFHTVIFPLMNPMIYTLRNQEVKTSMKRLLSRHVVCQVDFIIRN [OR4N4]”, for which the “plasma membrane surface immunostaining intensity” value (GPCR class: A (Olfactory)) worked out at 255 ± 110.

Turning to “MERGNQTEVGNFLLLGFAEDSDMQLLLHGLFLSMYLVTIIGNLLIILTISSDSHLHTPMYFFLSNLSFADICFTSTTVPKMLVNIQTQSKMITFAGCLTQIFFFIAFGCLDNLLLTMTAYDRFVAICYPLHYTVIMNPRLCGLLVLGSWCISVMGSLLETLTILRLSFCTNMEIPHFFCDPSEVLKLACSDTFINNIVMYFVTIVLGVFPLCGILFSYSQIFSSVLRVSARGQHKAFSTCGSHLSVVSLFYGTGLGVYLSSAVTPPSRTSLAASVMYTMVTPMLNPFIYSLRNKDMKGSLGRLLLRATSLKEGTIAKLS [OR7C2]”, the “plasma membrane surface immunostaining intensity” value (GPCR class: A (Olfactory)) worked out at 131 ± 26.

Regarding “MTSTCTNSTRESNSSHTCMPLSKMPISLAHGIIRSTVLVIFLAASFVGNIVLALVLQRKPQLLQVTNRFIFNLLVTDLLQISLVAPWVVATSVPLFWPLNSHFCTALVSLTHLFAFASVNTIVVVSVDRYLSIIHPLSYPSKMTQRRGYLLLYGTWIVAILQSTPPLYGWGQAAFDERNALCSMIWGASPSYTILSVVSFIVIPLIVMIACYSVVFCAARRQHALLYNVKRHSLEVRVKDCVENEDEEGAEKKEEFQDESEFRRQHEGEVKAKEGRMEAKDGSLKAKEGSTGTSESSVEARGSEEVRESSTVASDGSMEGKEGSTKVEENSMKADKGRTEVNQCSIDLGEDDMEFGEDDINFSEDDVEAVNIPESLPPSRRNSNSNPPLPRCYQCKAAKVIFIIIFSYVLSLGPYCFLAVLAVWVDVETQVPQWVITIIIWLFFLQCCIHPYVYGYMHKTIKKEIQDMLKKFFCKEKPPKEDSHPDLPGTEGGTEGKIVPSYDSATFP [GPR101]”, the “plasma membrane surface immunostaining intensity” value (GPCR class: A) is 3010 ± 110.

Turning to “MGGRVFLAFCVWLTLPGAETQDSRGCARWCPQNSSCVNATACRCNPGFSSFSEIITTPTETCDDINECATPSKVSCGKFSDCWNTEGSYDCVCSPGYEPVSGAKTFKNESENTCQDVDECQQNPRLCKSYGTCVNTLGSYTCQCLPGFKFIPEDPKVCTDVNECTSGQNPCHSSTHCLNNVGSYQCRCRPGWQPIPGSPNGPNNTVCEDVDECSSGQHQCDSSTVCFNTVGSYSCRCRPGWKPRHGIPNNQKDTVCEDMTFSTWTPPPGVHSQTLSRFFDKVQDLGRDSKTSSAEVTIQNVIKLVDELMEAPGDVEALAPPVRHLIATQLLSNLEDIMRILAKSLPKGPFTYISPSNTELTLMIQERGDKNVTMGQSSARMKLNWAVAAGAEDPGPAVAGILSIQNMTTLLANASLNLHSKKQAELEEIYESSIRGVQLRRLSAVNSIFLSHNNTKELNSPILFAFSHLESSDGEAGRDPPAKDVMPGPRQELLCAFWKSDSDRGGHWATEGCQVLGSKNGSTTCQCSHLSSFAILMAHYDVEDWKLTLITRVGLALSLFCLLLCILTFLLVRPIQGSRTTIHLHLCICLFVGSTIFLAGIENEGGQVGLRCRLVAGLLHYCFLAAFCWMSLEGLELYFLVVRVFQGQGLSTRWLCLIGYGVPLLIVGVSAAIYSKGYGRPRYCWLDFEQGFLWSFLGPVTFIILCNAVIFVTTVWKLTQKFSEINPDMKKLKKARALTITAIAQLFLLGCTWVFGLFIFDDRSLVLTYVFTILNCLQGAFLYLLHCLLNKKVREEYRKWACLVAGGSKYSEFTSTTSGTGHNQTRALRASESGI [ADGRE5]”, the “plasma membrane surface immunostaining intensity” value (GPCR class: B) was 6420 ± 110.

For the sequence “MANFTPVNGSSGNQSVRLVTSSSHNRYETVEMVFIATVTGSLSLVTVVGNILVMLSIKVNRQLQTVNNYFLFSLACADLIIGAFSMNLYTVYIIKGYWPLGAVVCDLWLALDYVVSNASVMNLLIISFDRYFCVTKPLTYPARRTTKMAGLMIAAAWVLSFVLWAPAILFWQFVVGKRTVPDNQCFIQFLSNPAVTFGTAIAAFYLPVVIMTVLYIHISLASRSRVHKHRPEGPKEKKAKTLAFLKSPLMKQSVKKPPPGEAAREELRNGKLEEAPPPALPPPPRPVADKDTSNESSSGSATQNTKERPATELSTTEATTPAMPAPPLQPRALNPASRWSKIQIVTKQTGNECVTAIEIVPATPAGMRPAANVARKFASIARNQVRKKRQMAARERKVTRTIFAILLAFILTWTPYNVMVLVNTFCQSCIPDTVWSIGYWLCYVNSTINPACYALCNATFKKTFRHLLLCQYRNIGTAR [CHRM4]”, the “plasma membrane surface immunostaining intensity” value (GPCR class: A) amounted to 952 ± 190.

“MEETNNSSEKGFLLLGFSDQPQLERFLFAIILYFYVLSLLGNTALILVCCLDSRLHTPMYFFLSNLSCVDICFTTSVAPQLLVTMNKKDKTMSYGGCVAQLYVAMGLGSSECILLAVMAYDRYAAVCRPLRYIAIMHPRFCASLAGGAWLSGLITSLIQCSLTVQLPLCGHRTLDHIFCEVPVLIKLACVDTTFNEAELFVASVVFLIVPVLLILVSYGFITQAVLRIKSAAGRQKAFGTCSSHLVVVIIFYGTIIFMYLQPANRRSKNQGKFVSLFYTIVTPLLNPIIYTLRNKDVKGALRTLILGSAAGQSHKD [OR2G6]”: the “plasma membrane surface immunostaining intensity” value (GPCR class: A (Olfactory)) was found to be 122 ± 18.

Take “MDNLTKVTEFLLMEFSGIWELQVLHAGLFLLIYLAVLVGNLLIIAVITLDQHLHTPMYFFLKNLSVLDLCYISVTVPKSIRNSLTRRSSISYLGCVAQVYFFSAFASAELAFLTVMSYDRYVAICHPLQYRAVMTSGGCYQMAVTTWLSCFSYAAVHTGNMFREHVCRSSVIHQFFRDIPHVLALVSCEVFFVEFLTLALSSCLVLGCFILMMISYFQIFSTVLRIPSGQSRAKAFSTCSPQLIVIMLFLTTGLFAALGPIAKALSIQDLVIALTYTVLPPFLNPIIYSLRNKEIKTAMWRLFVKIYFLQK [OR14I1]”: the “plasma membrane surface immunostaining intensity” value (GPCR class: A (Olfactory)) came out at 118 ± 14.

For the sequence “MEPEKQTEISEFFLQGLSEKPEHQTLLFTMFLSTYLVTIIGNALIILAIITDSHLHTPMYFFLFNLSLVDTLLSSTTVPKMLANIQAQSRAIPFVGCLTQMYAFHLFGTMDSFLLAVMAIDRFVAIVHPQRYLVLMCSPVCGLLLGASWMITNLQSLIHTCLMAQLTFCAGSEISHFFCDLMPLLKLSGSDTHTNELVIFAFGIVVGTSPFSCILLSYIRIFWTVFKIPSTRGKWKAFSTCGLHLTVVSLSYGTIFAVYLQPTSPSSSQKDKAAALMCGVFIPMLNPFIYSIRNKDMKAALGKLIGKVAVPCPRPEQLLDVYHVPGSLLAARDTEMHPIPYPGGVQSLAGNRDME [OR1I1]”, the “plasma membrane surface immunostaining intensity” value (GPCR class: A (Olfactory)) amounted to 161 ± 47.

“MLGPAYNHTMETPASFLLVGIPGLQSSHLWLAISLSAMYITALLGNTLIVTAIWMDSTRHEPMYCFLCVLAAVDIVMASSVVPKMVSIFCSGDSSISFSACFTQMFFVHLATAVETGLLLTMAFDRYVAICKPLHYKRILTPQVMLGMSMAVTIRAVTFMTPLSWMMNHLPFCGSNVVVHSYCKHIALARLACADPVPSSLYSLIGSSLMVGSDVAFIAASYILILRAVFDLSSKTAQLKALSTCGSHVGVMALYYLPGMASIYAAWLGQDIVPLHTQVLLADLYVIIPATLNPIIYGMRTKQLLEGIWSYLMHFLFDHSNLGS [OR52I1]”: for the setting “GPCR class: A (Olfactory)”, the “plasma membrane surface immunostaining intensity” value stood at 157 ± 16.

Take “MTRKNYTSLTEFVLLGLADTLELQIILFLFFLVIYTLTVLGNLGMILLIRIDSQLHTPMYFFLANLSFVDVCNSTTITPKMLADLLSEKKTISFAGCFLQMYFFISLATTECILFGLMAYDRYAAICRPLLYSLIMSRTVYLKMAAGAFAAGLLNFMVNTSHVSSLSFCDSNVIHHFFCDSPPLFKLSCSDTILKESISSILAGVNIVGTLLVILSSYSYVLFSIFSMHSGEGRHRAFSTCASHLTAIILFYATCIYTYLRPSSSYSLNQDKVASVFYTVVIPMLNPLIYSLRSKEVKKALANVISRKRTSSFL [OR5F1]”: the “plasma membrane surface immunostaining intensity” value (GPCR class: A (Olfactory)) came to 192 ± 87.

With “MEDFNMESDSFEDFWKGEDLSNYSYSSTLPPFLLDAAPCEPESLEINKYFVVIIYALVFLLSLLGNSLVMLVILYSRVGRSVTDVYLLNLALADLLFALTLPIWAASKVNGWIFGTFLCKVVSLLKEVNFYSGILLLACISVDRYLAIVHATRTLTQKRYLVKFICLSIWGLSLLLALPVLLFRRTVYSSNVSPACYEDMGNNTANWRMLLRILPQSFGFIVPLLIMLFCYGFTLRTLFKAHMGQKHRAMRVIFAVVLIFLLCWLPYNLVLLADTLMRTQVIQETCERRNHIDRALDATEILGILHSCLNPLIYAFIGQKFRHGLLKILAIHGLISKDSLPKDSRPSFVGSSSGHTSTTL [CXCR2]”, the “plasma membrane surface immunostaining intensity” value (GPCR class: A) came out at 266 ± 3.4.

“MDPTISTLDTELTPINGTEETLCYKQTLSLTVLTCIVSLVGLTGNAVVLWLLGCRMRRNAFSIYILNLAAADFLFLSGRLIYSLLSFISIPHTISKILYPVMMFSYFAGLSFLSAVSTERCLSVLWPIWYRCHRPTHLSAVVCVLLWALSLLRSILEWMLCGFLFSGADSAWCQTSDFITVAWLIFLCVVLCGSSLVLLIRILCGSRKIPLTRLYVTILLTVLVFLLCGLPFGIQFFLFLWIHVDREVLFCHVHLVSIFLSALNSSANPIIYFFVGSFRQRQNRQNLKLVLQRALQDASEVDEGGGQLPEEILELSGSRLEQ [MRGPRX1]”: the “plasma membrane surface immunostaining intensity” value (GPCR class: A) amounted to 6278 ± 45.

For the origin of these results see the supplement of paper PMC12458215.
